# From the domain aggregation screens of Martell et al. (2025)
# Test: soluble fraction after stress (log2 fold change); higher = more stays soluble; pooled small domains, quantitative proteomics
# Conditions: stress: 50 degC
# How it was run: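 After stress at 50°C, the amount of each protein still soluble was measured. This was done on pooled custom libraries of small protein domains, using high-throughput quantitative proteomics. The figure given is a base-two log fold change and stands for aggregation propensity, with higher values meaning more protein stays in solution.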
row,Sequence,soluble fraction (log2)
1,HMGIYDQAAAAYIEFVESKNRAPKWNELIDALYKENGKDWIDRSTLHGLLRRKEFQELLAQKRKEHLV,-0.184
2,HMGIYFIIAAKNQENNIEEFIRTTLFRIVYGKEESINNITLVDLKSKDNTKNIMEEIARENENVKV,-0.335
3,HMGKAPREVQVGELLRVPALNAEGEVLRRDGESVELSIQGKKLRLPLAQLEAFSPRRFARRGEGKVRGRIE,0.432
4,HMGKDLLGYEVFAESGDLVGILKDVMWLPHSDVYVITKGGKEFLIPVIPEVVKGINHEQGVIVISPMEGLL,-0.0165
5,HMGKDTLKLKKNAIPYDENGKKLTNLGYSYIKKTTVLNYYGTKIINGSTYYFLGDGVYIKAANVGTTSH,-2.23
6,HMGKEYERALQQVTKSEIDSDEKLQQQMDALVNSPRISDKEDAWALLLVKKLRNEGVEWDELPDVLSERVQ,0.0796
7,HMGKGGVAYLLESEFGIELPKDMQREFGPIANDIVDSLGREVSGAELKSMFWKEYIERETPFLLLLVTGQL,0.457
8,HMGKIFSELTPREIEVVRLIADGLSNQQIAEELFLSNGTVRNHISTILEKTGLEHRTQIAVMWLR,-0.146
9,HMGKKIVERRNTILNMVNKYGTLDFPQLRDAFPDVSDVTLRKDLQYLDSTKQAIRTHGGIKSI,0.0534
10,HMGKLQFREKLNGILELGKEKHRVLTMEDVEKYFEEDALSEEQMELVYDYLLSQKIAVTGYVKK,-0.191
11,HMGKPPNNRIHRAKRDYALNLVKEHYPDFGPTLAAEKLAEHHGFTVSRETLRKWMIEDGIWLSRKQRR,-0.123
12,HMGKQIKEIVEEYYDSTSKNSPVGGSWKTSLDGVDLTSPNITIWTRTKIKYVDGSESIVTPQSL,-0.0357
13,HMGKRPTIQMVAEMAGVSRGTVDRVLNGRSYVSAQVRQRVLAALQETGYISSREHHQQALQS,-0.0246
14,HMGKRRGLKVAEEVFADRGYNPDGTLVNRSLPGAFVKDPDEAIARVIKMVKTKKVTAVNGEEIDIAADSI,0.132
15,HMGKSDEIFIQKSALYEELGQPDRALEMIYSALKSDSLNIDVLHRLVTLLINQNKNEDAILYNQKIID,-0.193
16,HMGKTEETLQMEKLVEALRRSGRMKYEDAYRIVYAAFPDAKDFEGMLSGAIRAGFIELQMGNDGAFLRAL,-0.172
17,HMGKVNGFEITVIEGKNVVGSITPRQAIAKNSDGVIQLRGEQSFSATDQVLINELAFYIKSNNLKA,-0.949
18,HMGLAALLQSGPVAGTVLSHQPGGKVVIAFQGQAYPLNLKGRTLQPGQSVLARMAGEQISLEVI,-0.289
19,HMGLDERNLKLFAASLLEQAGKKITESTMTYLLDKTGSDMENIQNEVEKIIGYTMNHTVVTTEDIDAV,-0.271
20,HMGLDPVFKKWVDDNPWYTENRVLRALTHDYAEELKQTNPQLVGVEFLDQVKKRVQADHPEFFQ,0.141
21,HMGLGDLEVVDSIGKIRRDGQQMILAFGRHKGRDVQEVYNEDPRYINWLLSPKGIEDENGRGKVRDYLGIN,0.163
22,HMGLKQADFEELASRIFTVLEEKSMTPAEIVRKLNLEPDRISIVIQYLLDEGKLNIKDGFINNSA,-0.107
23,HMGLLGIYPNPVEGGSVRLLSDADLFGSRFELYDQSGKLVLNGFVTEGNFVSVKGISSGLYISVSYT,0.0024
24,HMGLLGTDISAETMIGYFKKIDLGFDEETQEVIVPSWRQDLLRDADIAEEVARFYGYDNIPTTLPSGEST,-0.122
25,HMGLNLIGLKRSGFAPEEVKAMTRAYMYIFKSAEGNFESRLAKAHEKYKDDALIMEMVEFIDDALKG,-0.906

row,Sequence,soluble fraction (log2)
1,HMGLQEADKQDRIARMKELISFLNEAAKAYYQEGREIVSNLEYDKAYDALLSLEKESGVVLSGSPSQNVG,0.147
2,HMGLRERLLNYIAYKGIDKATLERKSGLSNDAVNKMGDNTRVSTLDKISNAFPDINIAWLKTGVGEMILG,-0.113
3,HMGLSAALKARLREVINEMAKSGAQPKLREWALAEGIGNFAKPETPEAAEAVIAKAQELLAEA,0.547
4,HMGLSASVIQMFADLGYTSEGRSTKEMITDYQIDHSIIKNSTEDGAGTYGPRTKASLSTVHAQYI,-0.103
5,HMGLSENALAMLKQQETVLIRLIDGRGNQGALASINLIVSRILNLDIVDRTPEDLLRVIASEGEQND,-3.78
6,HMGMIRFSKEEQMLMMLYSPGSRLGLIAELESMKLQLNSRERKLRNLAESVLKKLEQITDEEFMQFDF,-1.31
7,HMGMNSGQADFRGISLALSVDAEAEAQRLFTALADGGQVQMPLSKTFFSPAFGMVADRFGVGWMVVTN,0.247
8,HMGMSENIDKVAGGIPYKVEGNKAIINEPLDDATKERLMGKAKEHGYHAAPNQAGGITITLK,0.134
9,HMGMSKQKQSSLVRIIMQEISDANEGRMKMSQIIDAALIKGISDSTVRSVISRLSTTGAIYEPQTGTYEW,-0.643
10,HMGNEEEEAIREAEEAIERVLEYGEPQELNPQNGFIRRLQHQLAEKSHLSSESVGVEPYRRVRISK,0.185
11,HMGNFFDSAILALKNAIQENYGGNVSQAARSLGISVPTLHTWIKGDRKPSLEKLSPILDALNAKIVL,-0.726
12,HMGNFGDLLKILLDEKELSMGELSKKSGIDKSTISRIANNKQKPNINHLEKMAIHLNINLEELLKASGYEF,-0.364
13,HMGNFQNIFRKLRTSSNLTQNAIAEKLGISRSTIGMYETGAREPDFETLEKIADYFNVDTDFLLGRTNQTT,-0.106
14,HMGNKDAQLVHLAKMNEIQIELMKTGRGYMVTDQNVYNLAKKMGENMGFKHPDLFLTDPAKV,-0.0553
15,HMGNKDIEILFSEIVEMRNRIIHGFRITSKQGEQILATKTRKKDGNIQFEITKEYLLDFIKKNEELSDMLY,-2.23
16,HMGNKWALLVVFILNENGSTRFNQLARQIPDISTKVLSNTLQILEADGLVKRTVFPEVPIRVEYELTATGK,-3.64
17,HMGNLIIFYDEGIGSGPLMKAVNDSGVSLVYEYKNLHGIAIRPSAKTNIQDAIAYFQKVNGVLSVEQ,-2.52
18,HMGNNKLVLSLAVALKNTPNFLKNYNYKISKDKKFIEILLSKQINEVSDIIINLKKNNINIVDLNIKKR,-1.51
19,HMGNNTEITYSEFIRQAEAGNVQYVTVDGEKLLISATDGKSYYTINPRDDQMTDRLLNSGVEIRAEPQ,0.101
20,HMGNRQEQVRIIRDLWRQLADAGQPVPAKHLTLDLDALDATQLTKLEDQAHGWLAKLSAQADLADAA,-0.0488
21,HMGNTMIVILKHEARQEQIDRLKQFLLGMGLRIDESKGENSTILGLVGDTTRVDADLISSLDAVEAVRRV,-0.0449
22,HMGNWENVEKETTEAIMAVKNGEAVWVDLAPANRMIRQMQHELVEQYGLLSQSYGKEPKRRIRIFQNP,-0.337
23,HMGPDALSIGRRVRQVRTARGMTLDELAAAVSRAPSQLSMIETGKREPKLSLLQAIARALGTTIDALLT,-0.176
24,HMGPDGLFAKFREPETGKDLLITQNVFVEQVLIKGVLTRTLTDAEANTYRAPFVNPEKRFPIYVWPNELP,0.142
25,HMGPEAFPVPYIVDIELDRAIYVIEQSGFIVGQKLEANDDNVPRGFVISQNPAAGTKLGPNSVVDLVISSG,-1.02

row,Sequence,soluble fraction (log2)
1,HMGPEQLIGKTGIAASELAPRGEVKIEGQIWRAETVGDHVKQGEPVEVVSREGLILRVKPKHPQTRG,0.214
2,HMGPEVQLAYSEFLAKVKVGEVNDVMVKGNEIHGHFSDGRTFSTYSPNDPDLVEKLNKNKVMIKAAPP,0.0475
3,HMGPFYFDQDGKAYSGLLNRNGEILYFADPFNAAVKNTTKTIDGKTYTFNQNGRATSIDGIPLEPP,0.142
4,HMGPGDTTIPTTIIGMSLEEARNELSAAGLLVARIIPVDSNSRTGTVLKITPDAGSIIKAGSGVELEIAS,0.0765
5,HMGPGFVGGSVLSGGNRGEGDPVANAQVFITDMDDNVVAFTKTDAEGNFDMTNLAYGDYKMYVDILNK,-0.0166
6,HMGPGSYVVNVKPYAYVSINGRDYGRTPVGPIRLDPGTYKVVFTHEHRPSFSRTIVVEAGRETFETFPYPG,-0.29
7,HMGPLPIDSRYFNNLVPYTGITHVNSVIPEAERHIGLTVVVKTGSTYSEYWYRTGVTNSSLELKT,-0.634
8,HMGPLYARVKAIVLARIMGGDWPPGTALPAEMELARALGVSQGTVRKALDALTAEQVVVRRQGSGTYVAE,-1.04
9,HMGPNYYDILEIPTDASPSEITQAFRKKALEWHPDKNPNNLEEATSRFIEIVEAYRVLSSKDSKLQYDTG,0.0242
10,HMGPSVGMTVGEMERDLIFRTLETVGDNRTKAADMLGISIRTLRNKLNEYREAGFEWPRKAG,0.00867
11,HMGQAVTMLKAGRLLANAKGTGAPVRSLEPGMLLYPTGVKEGTMWEVEDEMGNKGWVNSTLMETA,-0.212
12,HMGQAVTVPELKGLSFDEAIEKLDDAGLKYEVVDSNYVEDMKPGTVFETLPEAGSRVKPRRIVFLTINAF,-0.319
13,HMGQDTTIVVRRGESLLGIAARLLPATDFYTTGELAEGIRTASGMENDRLIPGQTLRVPLNSG,-0.0889
14,HMGQGEISVPRLEGLSLRETSELLGLFGLRLEAAGSGIALSQNPPAGARVKAGDVIQVDFGEPGN,0.0136
15,HMGQHSAELKLHPQDLGQVTISMKVEDNQAQLQMVSGHGHVRAALEAALPQLRSQLADSGIQLTQSSIS,-0.146
16,HMGQISDEETLKTVASRIIDANPDEARKYRSGKTGLLGFFVGQVMKATQGEANPKLASRIVKELLE,-0.0262
17,HMGQLIVTIPNFERRPAEQAIQKLEELGLVPEEKQIYHDDIPAGSVIYTDPSKDSQVNAGTKVYVYVSLG,-0.116
18,HMGQMGHAVVAKTDLAVGTPLTRDLVAVREVPVEWLHSSAITPEQFERAAGAVLAQPARGGEPLVWSQLEE,0.0906
19,HMGQPRPLTAEDFDFLSDDEIAEMRKALSNGEMLRLRELIAQIGEKRPFLAERLLVLAKQYNYEDLSRLLE,-0.374
20,HMGQQPPVTEIYKNHDGNKDGLLEAGEVTGSRYARQFPRWDVNGDQKVSPQEVIAFRKRFGIAADGTLL,-0.0225
21,HMGQQTVEPLSRRELEVLSLLAKGLSNQQIADRLVISVRTVKKHVENIHGKLGVQSRTQAVARARELGLV,0.122
22,HMGQTYTITINPTPADAKVIIDGVATNSVEAIDGRTLIWSVSKPGYLTKSGNYTVTGKNETLNIVLKEDPD,0.087
23,HMGQVLEGVFRRKANGKNAFIPDGGGEPILVAERNSAHAMDGDRVKATLLARRKHHVREAQVTEILKRSSK,-0.0521
24,HMGQVSDENQLNKVIDEVIKNYPIQVEQFKAGKEPILQFLKGMVMKATEGSADPAVAEKLLRKKL,0.237
25,HMGQYLDAATVAAVYHAYHARNWTQATLAKELKVARPTLSNVLNGREAPSVELAARIRAFLGSPEP,-1.66
